Legend:
[1] = target: dysferlin canonical C2A domain, construct 3 (aa 19-134) (Rattus norvegicus); assay: SPR; Biacore 3000, 25 °C; His6 fusion ligand amine-coupled on a CM5 chip (dysferlin C2 domain as ligand, partner as analyte, per Figure 2 'ligand:analyte'); analyte typically 0–320 nM, including reversal of ligand and analyte; 1:1 Langmuir model; Ca2+ level of the KD values of Table 1 not given
[2] = target: dysferlin C2F domain (Rattus norvegicus); assay: as above
[3] = target: annexin A2 (amino terminus) construct (rat); assay: SPR; 100 uM Ca2+; conditions: domain or fragment
annexin A2 (amino terminus) construct (rat), sequence (Q07936 2-339): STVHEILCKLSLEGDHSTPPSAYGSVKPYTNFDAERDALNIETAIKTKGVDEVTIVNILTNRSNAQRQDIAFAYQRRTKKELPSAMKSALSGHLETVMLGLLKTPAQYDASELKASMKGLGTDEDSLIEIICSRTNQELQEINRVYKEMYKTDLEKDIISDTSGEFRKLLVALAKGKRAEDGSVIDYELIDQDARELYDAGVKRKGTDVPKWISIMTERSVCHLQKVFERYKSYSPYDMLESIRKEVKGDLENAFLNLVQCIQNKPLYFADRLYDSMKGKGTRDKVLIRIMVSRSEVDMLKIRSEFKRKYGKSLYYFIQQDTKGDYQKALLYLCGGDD

[4] = target: annexin A2 (amino terminus) construct (rat); assay: SPR; without Ca2+; conditions: domain or fragment
[5] = target: annexin A2 (amino terminus) construct (rat); assay: SPR; 0 added Ca2+; conditions: domain or fragment

dysferlin C2F domain (Rattus norvegicus), sequence (Q9ESD7 1805-1953): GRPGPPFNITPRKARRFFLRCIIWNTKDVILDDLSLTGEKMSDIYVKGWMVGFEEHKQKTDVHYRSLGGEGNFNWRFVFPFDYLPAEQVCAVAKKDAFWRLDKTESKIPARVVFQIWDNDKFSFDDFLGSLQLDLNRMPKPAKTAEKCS
dysferlin canonical C2A domain, construct 3 (aa 19-134) (Rattus norvegicus), sequence (Q9ESD7 other isoform, or with tags, fused parts or gaps): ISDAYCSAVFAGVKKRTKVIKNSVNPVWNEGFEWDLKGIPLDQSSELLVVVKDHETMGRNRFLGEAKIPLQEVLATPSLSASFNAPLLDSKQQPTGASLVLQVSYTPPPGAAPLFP
annexin A1 construct (domain or fragment), sequence (P07150 2-346): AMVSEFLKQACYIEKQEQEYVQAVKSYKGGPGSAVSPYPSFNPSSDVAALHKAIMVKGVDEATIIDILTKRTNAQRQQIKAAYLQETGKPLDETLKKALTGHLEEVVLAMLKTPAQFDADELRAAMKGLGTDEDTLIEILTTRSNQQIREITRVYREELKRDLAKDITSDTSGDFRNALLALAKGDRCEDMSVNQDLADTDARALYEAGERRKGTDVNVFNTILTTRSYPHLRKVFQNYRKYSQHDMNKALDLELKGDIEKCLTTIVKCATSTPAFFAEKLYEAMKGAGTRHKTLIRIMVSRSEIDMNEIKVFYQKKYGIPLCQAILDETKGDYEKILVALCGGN
syntaxin-4 construct (domain or fragment), sequence (Q08850 whole entry, the tested form may be a part): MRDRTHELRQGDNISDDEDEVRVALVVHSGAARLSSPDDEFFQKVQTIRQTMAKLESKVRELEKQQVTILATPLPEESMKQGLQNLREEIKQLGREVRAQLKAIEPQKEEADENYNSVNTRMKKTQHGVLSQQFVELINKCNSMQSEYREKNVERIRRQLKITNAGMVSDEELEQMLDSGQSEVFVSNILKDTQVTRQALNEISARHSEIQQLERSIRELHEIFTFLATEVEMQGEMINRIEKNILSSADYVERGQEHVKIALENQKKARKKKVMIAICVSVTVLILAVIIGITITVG
caveolin-3 construct (domain or fragment), sequence (P51638 whole entry, the tested form may be a part): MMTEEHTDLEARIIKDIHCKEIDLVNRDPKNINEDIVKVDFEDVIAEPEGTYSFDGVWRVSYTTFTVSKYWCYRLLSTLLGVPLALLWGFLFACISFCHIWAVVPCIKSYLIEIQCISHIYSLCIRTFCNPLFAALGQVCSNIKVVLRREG
calpain-3 construct (domain or fragment), sequence (P16259 whole entry, the tested form may be a part): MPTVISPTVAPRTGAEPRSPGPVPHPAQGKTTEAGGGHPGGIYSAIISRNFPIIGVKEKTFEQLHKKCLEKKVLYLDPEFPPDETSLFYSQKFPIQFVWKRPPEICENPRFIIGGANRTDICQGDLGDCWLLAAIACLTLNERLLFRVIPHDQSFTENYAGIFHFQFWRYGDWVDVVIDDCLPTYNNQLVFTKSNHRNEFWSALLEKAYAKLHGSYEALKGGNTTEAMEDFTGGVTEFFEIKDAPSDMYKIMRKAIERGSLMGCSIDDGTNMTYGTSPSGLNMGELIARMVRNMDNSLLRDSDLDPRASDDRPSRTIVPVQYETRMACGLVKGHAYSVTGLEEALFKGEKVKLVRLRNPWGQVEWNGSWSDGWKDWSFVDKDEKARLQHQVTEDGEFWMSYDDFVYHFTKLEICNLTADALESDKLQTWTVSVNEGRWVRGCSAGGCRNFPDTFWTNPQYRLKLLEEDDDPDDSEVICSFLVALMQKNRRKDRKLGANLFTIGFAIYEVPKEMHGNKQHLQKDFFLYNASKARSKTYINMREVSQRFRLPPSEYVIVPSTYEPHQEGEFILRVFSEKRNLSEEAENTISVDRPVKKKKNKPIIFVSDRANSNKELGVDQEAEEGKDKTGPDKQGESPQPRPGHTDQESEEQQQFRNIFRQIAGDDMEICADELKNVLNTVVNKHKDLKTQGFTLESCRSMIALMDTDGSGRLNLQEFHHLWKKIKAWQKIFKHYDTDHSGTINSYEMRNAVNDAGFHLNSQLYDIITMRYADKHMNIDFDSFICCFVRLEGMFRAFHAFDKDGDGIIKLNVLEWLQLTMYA
mitsugumin-53 construct (domain or fragment), sequence (A0JPQ4 whole entry, the tested form may be a part): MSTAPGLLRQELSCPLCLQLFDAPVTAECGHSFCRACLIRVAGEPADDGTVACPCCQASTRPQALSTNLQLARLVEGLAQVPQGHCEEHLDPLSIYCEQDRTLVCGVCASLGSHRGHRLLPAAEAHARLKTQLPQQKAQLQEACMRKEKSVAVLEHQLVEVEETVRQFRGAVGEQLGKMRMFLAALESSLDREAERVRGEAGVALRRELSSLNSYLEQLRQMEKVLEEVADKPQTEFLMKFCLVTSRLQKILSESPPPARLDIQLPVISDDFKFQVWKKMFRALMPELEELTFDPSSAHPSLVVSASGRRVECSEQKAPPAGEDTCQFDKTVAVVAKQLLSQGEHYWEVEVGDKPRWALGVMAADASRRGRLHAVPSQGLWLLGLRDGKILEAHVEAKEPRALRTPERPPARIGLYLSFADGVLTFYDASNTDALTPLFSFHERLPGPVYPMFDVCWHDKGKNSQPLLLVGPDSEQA

Substance	Kd [1] [µM]	Kd [2] [µM]	further results
AHNAK1 construct, the final 500 amino acids (domain or fragment)	0.38		
affixin (beta-parvin) construct (domain or fragment)	41	0.4	
annexin A1 construct (domain or fragment)	0.025	0.33	
calpain-3 construct (domain or fragment)	1.2	0.0022	
caveolin-3 construct (domain or fragment)	0.033	0.11	
dysferlin canonical C2A domain, construct 1 (aa 1-152 plus 24 aa)			Kd [3]: 0.0236 µM; Kd [4]: 0.101 µM
dysferlin canonical C2A domain, construct 3 (aa 19-134)			Kd [5]: 0.19 µM
mitsugumin-53 construct (domain or fragment)	0.47		
syntaxin-4 construct (domain or fragment)	4.4	0.13	
